# Results: patent publication US20180148493A1
# B1: … (peptide)
# peptide: AIIRILQQL
# modifications: not checked
# Biological target: HLA-A2 (Homo sapiens)
binder,measurement,value
B1,IC50,0.385 µM
